The text below walks through data of publication PMC7144274.

The target of the assay is soluble MERTK ectodomain (MERTK^ED-His). In words: SPR; Biacore T200, room temperature; […]; HBS-EP (10 mM HEPES pH 7.4, 150 mM NaCl, 0.05% Tween 20). For orientation: In SPR one partner is held on a chip, and binding of the other changes the refractive index at the surface.

The substance “CSFV E2 ectodomain (E2^ED-His) (domain or fragment)” returned a Kd of 1630 nM.

A word on the Kd: it is the constant that tells how readily two partners part at equilibrium. A high value points to weaker binding.
